Publication doi:10.1101/2024.02.06.579105
Blank lines part the entries; values can stand above or below the substance they belong to.

Columns and labels:
Assay in all cases: SEC
[1] = biological target: MalE-DmxA^E626A (M. xanthus)
[2] = biological target: MalE-DmxA^GAF×2 (M. xanthus)
[3] = biological target: MalE-DmxA^R615A (M. xanthus)
[4] = biological target: MalE-DmxA^WT (M. xanthus)

stoichiometry N [1]: 2
Substance: MalE-DmxA^E626A (domain or fragment)

stoichiometry N [2]: 2
Substance: MalE-DmxA^GAF×2 (domain or fragment)

stoichiometry N [3]: 2
Substance: MalE-DmxA^R615A (domain or fragment)

stoichiometry N [4]: 2
Substance: MalE-DmxA^WT (domain or fragment)
